Laboratory results reported in paper PMC5376091.
One block for each molecule: values may come before it.

Target: wild type (WT) Aβ40 peptide (human)

Molecule: Aβ40 A2V variant, full-length (peptide)
ThT fibrillization of 25 μM WT Aβ40 co-incubated with full-length A2V (WT to A2V 1 to 1 and 1 to 2): shortening of the lag time: 6 h
ThT signal at the final plateau of 25 μM WT Aβ40 mixed with two fold full-length A2V, against WT alone: 40%

Molecule: Aβ40 A2T variant, full-length (peptide)
ThT fibrillization of 25 μM WT Aβ40 co-incubated with full-length A2T (WT to A2T 1 to 1 and 1 to 2): extension of the lag phase: 8 h

Now from value to molecule:

ThT fibrillization of 25 μM WT Aβ40 co-incubated with A2V NTF(1–10) (1 to 1 and 1 to 6): shortening of the lag phase: 8 h
ThT signal of the end-point product of 25 μM WT Aβ40 with A2V NTF(1–10) (1 fold and 6 fold), against WT only: 22%
Molecule: A2V NTF(1–10) (peptide)

ThT fibrillization of 25 μM WT Aβ40 co-incubated with A2T NTF(1–10) (1 to 1 and 1 to 6): decrease of the ThT plateau: 20%
Molecule: DTEFRHDSYG [A2T NTF(1–10)]
